Assay [1] deals with Dil labelled LDL (low-density lipoprotein). In words: MST; purified LDLR^Q722* or wild-type LDLR with Dil labelled LDL; Kd model; three replicates.
For assay [2] the target is unchanged. Briefly: MST; sEV^Ad-LDLR-Q722* with Dil-LDL; Kd model; pH 5.5.
Assay [3] has the same target. In words: MST; sEV^Ad-LDLR-Q722* with Dil-LDL; Kd model; pH 7.4.
Assay [4] shares this target. Briefly: MST; sEV (isolated from supernatant of infected HepG2) with Dil-LDL; Kd model; pH not stated.
Assay [5] has the same target.

This is an account of results in article PMC8958347.

As a reminder, the Kd is the free concentration of one partner at which half of the binding sites on the other are occupied at equilibrium, for simple one-to-one binding.

With “LDLR^Q722* (truncated soluble LDLR, 1-722 amino acids), purified (from UniProt P01130 22-722) (domain or fragment)”, in assay [1], the Kd was 7.89 µM.
On to “LDLR^Q722* attached to the surface of small extracellular vesicles (sEV^Ad-LDLR-Q722*) (from UniProt P01130 22-722) (domain or fragment)”, for which the Kd in assay [2] was found to be 0.013 µM; in assay [3] it was 4.98 µM; in assay [4] it was 0.012 µM. Besides, the uptake of Dil-LDL by Ldlr–/– primary hepatocytes (confocal fluorescence intensity), sEV^Ad-LDLR-Q722* group against the sEV^Ad-LDLR-WT group in assay [5] was 3.13 fold. The same substance returned an uptake of Dil-LDL by Ldlr–/– primary hepatocytes (confocal fluorescence intensity), sEV^Ad-LDLR-Q722* group against the sEV^Ad-control group in assay [5] of 2.68 fold.
“wild-type LDLR (N-terminal residues 1-788) (from UniProt P01130 22-788) (domain or fragment)”: in assay [1], the Kd was found to be 7.16 µM.
